Values quoted from earlier work in publication PMC3906610.

Target: PagP (Escherichia coli) (UniProt P37001)
Sequence of UniProt P37001 (P37001 26-186): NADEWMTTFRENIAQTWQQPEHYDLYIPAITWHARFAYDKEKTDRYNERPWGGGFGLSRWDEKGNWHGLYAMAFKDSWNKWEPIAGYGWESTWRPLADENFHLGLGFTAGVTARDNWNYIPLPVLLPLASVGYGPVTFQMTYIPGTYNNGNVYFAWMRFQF

Kd: 11.8 nM
Substance: Skp (from UniProt P0AEU7)
